This passage reports protein production results from a protein production outcome set (Wang et al. 2014).

The data set can be described thus: label from the status in PepcDB records.
Consider “MDTAEIEADQRALQHASVEGTTETPGNAQSSTNDDVIKATVDQIVAQILSESAERKATEEGKTGKAADDVKNTPESGEDANKAAAKEPSGTPVAASSEATVPAPGSASSSNSPLPGTPPKYSNPHNLTIGARLEALSVEGNWLPARIVEVNETEQTLLVRFERNHKLKVSPSTSGSFQEWMAIKSERLRQRLSNRVLPVFELDEKCMARWSGPRKFPGTIRKLLGNDTYEVLFDDGYVKNVRAVHMNKMPKQLPPVQVAEEGASKSPTPVGTPVSSAPVAPKRASTGSLGGSSGSSGSKKSKCAPQRRDWPLLDMASLDIASLGLPEIPHDGEWTCHWVNDQPIGTEGFLIVGEHQKPTVIVQDWRLPPGWIKHMYQRSNVLGKWDVILVSPSGKRFRSKSDLKLFLESQNLVYNPDVYDFSIHRRRAKDINAYVYTHGYNPQPPPKPRPMDVSMNSTLDQSITSQHSLPSTPMPVKESQYMEAPVASLMPPAELMSPQTQPADETKPKIEAEILEASEGGTSQLMLADPHVVENGFAFIGGLKVKIQDNLYVCPREDCAKTYRKEDFLLIHIRHYHKEFAEHVSHCPKMQELAVKRTHPSSIDQVEAVPKNQIPNQQFFAKMHQQDLQQSRSFKRQSVSATATSSTPSDITPTKALLSPKMEPPSVSPTVESGIKQEDVSLDAGPTQSFNPSLSRSCKRARLSPSKRPSGSRKSNRQRSQRRPILSDNPAGHGLTEQDVEETRQSFNTPTPDTRIDSKKRRSGAATTPISSIDSPAMGDSVSTPSSNDQTDINAALAPPPAETLSKAPQYIKENGELIRIVRMRQEEIINCICEYGEEDGLMIQCELCLCWQHGACNGIVKEADVPDKYVCYICRNPQRGRDSMRFKHDQDWLFEGKLPVAAYHTANPQATKQFELLKRSHTLTGNLLDAKRSMHSLLVKINIARNRCHPKLYLWAKKWDEDNLDSTALTPVKRAKLEAPDLPNVPQPEAAIDPEECQYRLIEHIKVQQSLVLDRLNDIEAEMDELEKEDTLDDLKDADISTTKEALATFIKELETMKRLAKLNQVANMKQTLRDSATSK”, for which the protein production result is listed as “failed”. Turning to “MDTAKTKPFDEMFLQDEVIRPIYAEYAAWLQDVPHQQLESKRQEAELLFRRVGITFNVYGEDAGAERLIPFDVVPRILSASEWARLSDGAIQRVKALNMFLHDVYHDQEIIKAGIVPSSILANAQYRPEMFGVDVPGGVYAHIAGVDLVRTGENDFYVLEDNLRTPSGVSYMLENRKMMMRLFPELFRRYPVAPVEHYPQVLLNNLRAVAQAGVHEPTVVLLTPGAYNSAYFEHAFIAQQMGIELVEGQDLFVRNNAVYMRTTEGPKRVDVIYRRIDDDFIDPLSFRPDSMLGVPGLLSVYRNGGVTLANAVGTGVADDKDTYIYVPEMIRFYLGEEPILSNVPTYQLSKADDLKYVLDNLAELVVKEVQGSGGYGMLVGPAASKQELEDFRQRILANPANYIAQPTLALSTCPTLVETGIAPRHVDLRPFVLSGKTVSLVPGALCRVALREGSLVVNSSQGGGTKDTWILKD”, the protein production entry was “not failed”. The value for “MDTGDKEAGEQIVCKPSFFRVSDNHHHPSRAGCPLHQGQARTGSGSPRGQVAGAEKGGDEGGRRGSGGGSSEPRDRRRREQPRAAGDEDGSAGRAHGAQGHGHGGVCGARSQRPALLKPGSRRARGAGGGRMERKGLAARASGNPSPPALGEGPRPGPPPCVPSGGGAPERGQAGAAAEPAELIRRAHEFKSQGAQCYKDKKFREAIGKYHRALLELKGLLPPPGERERDARPASPAGIPKASRLSEEQSKTVEAIEIDCYNSLAACLLQAELVNYERVKEYCLKVLKKEGENFKALYRAGVAFYHLGDYDKALYYLKEARTRQPSDTNVIRYIQLTEMKLSRCSQREKEAM” was “failed”. On to “MDTGPDQSYFSGNHWFVFSVYLLTFLVGLPLNLLALVVFVGKLRCRPVAVDVLLLNLTASDLLLLLFLPFRMVEAANGMHWPLPFILCPLSGFIFFTTIYLTALFLAAVSIERFLSVAHPLWYKTRPRLGQAGLVSVACWLLASAHCSVVYVIEFSGDISHSQGTNGTCYLEFWKDQLAILLPVRLEMAVVLFVVPLIITSYCYSRLVWILGRGGSHRRQRRVAGLVAATLLNFLVCFGPYNVSHVVGYICGESPVWRIYVTLLSTLNSCVDPFVYYFSSSGFQADFHELLRRLCGLWGQWQQESSMELKEQKGGEEQRADRPAERKTSEHSQGCGTGGQVACAEN”, for which the protein production entry is on record as “failed”. Consider “MDTKTKRGFWIGINYSKTNLSLITASAILSIAFYLIYYNTKKTVAAVLFLALAIGAAFFFIKPIVDRDNKKNDINSNIPFFITAFSSLVTSDANIIDVLILLSKKEKLGYLRVEIEKILNLVKNWGMGLAEAINFVAKKTPSDLFSDFLTRFSHAIDSGQDLEEFTRSEVFSTMNSFETAYVSALYSFDLYRDIYVSLLLSFAFLITFIMIMPILIPINVFSVLMLSLIMVALGEFMLVYGISIVLPKDPLWHRTGIKTDTDIKMRNLFLISGTFSMMIFIVIDVMKIMFRIPFYFSFALIVTPLAYPSYVGTKMEREVQKKDEMYGSFIRSLSGSASARGNLLIDALKAIVMHDFGILSKDVNKLYRRLLYRINSLKAWKMFSADTGSHLIEIYSETYAESIDLGADALKSGMVISENFEKIVGLRKRKHSSVTSFVGIMYGITAGLAFSLAISYGILKIIDGIFSSFNLSSLGMTGIFLSPPSSSIFLIEIFLLIILFVHSFIGGISLKVSDGGRIINGLHHTVLMIWIVSFVVYGTMYITTILLGSTVS”, for which the protein production entry is listed as “failed”. Turning to “MDTLAYLHLAETYETSTTDESSPEIPWTKNQSSALMLVASFAMGSLNWCLPTVAALKKGHRNPQVASLQQKLRASGYFPQVATGYFGSVTEAAVKRFQQANGLKADGIVGAATLAALESSIGVSESSITDPQIATSKSSLKQGDISDRVMSLQEKLQADGYYQGAITGNFDAATQAAVIQFQQANRLVVDGIVGPQTSSVLASSTRKLAASLPQKTTLEPFLTQQPQNQVKISPQSAAPPSPSQKMRLIKTISGKISPKSVVYSGNGLFFAQNMMYNHTITVYDRNYELVKVIPDEVDLSKYGHSRFKGKYRGAPVEASFSHNGKYAWISNYQMYGPGFNNPGSDKCHPSQKTDKSFLYRINTETLKIDRVIPVGSVPKFVATSTDENLILVSNWCSWDLSVVDINQNQEIKRIKLGPYPRGIVVDPASETAYVAVMGSYNIAKVNLRDFSVQWLRNIGSSPRHLNIDPAGKYLYASLNGEGKIAKISLPQGNLVKKIATGNAPRSMVLSANGQTLYVVNYGEDTVSKVRTSDMKVLQKVKVEPDPIGITYDPQTREVWVACYSGNIMIFQD”, the protein production result is listed as “failed”. For “MDTLDGLKTVVAVVETNSFTAASDRLGISKALVSKYVGEVENQLGIRLFNRTTRQLALTDSGRRYYEEAIILLEQFSAMVDNVTGEQTAPRGLLRISAPVTFGEMRLAPLLPKFIALYPDLTVELVLTNGAIDMLEEGIDVRLRIGGVDDSNMIARHLTNFPLVLSASPNYAQTQGLPTTPEQLGEHHCIIDSNFRIGKQWPFISPKGRAETINVQSGLAVNSPQAVREIAIADGGIAMTPNFIVEDALADGRLLRVMPEYTTLEFGLFAIYPHRKYVARKVRCFIDFVLEQFSKK” the value was “failed”; for “MDTMDTLRAFLRVAELGSFTRAAETLGLPKASVSTAVQRLEASLGTQLLHRTTRRVQLTADGTAFYQRSRDLLDDMDELQGMFQRDHSQLRGRLRVDMSAGIARQFVIPALPAFLAQHPQLEIEISGTDRRVDLVREGFDCVLRVGTVEDTSLVGRPLGVLRIINVASAQYLAQRGVPQTLEDLAQHDLVHYVSTLGQRSPGFEYHDGAQYHWLPMRGPVTVNNGDAYLAAARAGLGIIQAPASPLQAHLDSGVLVEVLAQMAPEPMPVTLLYAQRRHLPQRVRLFMDWIAQVMAPHLEPHLP”, “failed”.

On to “MDTMRDRFAPVVSRLLDEDPRVVVVLAEIGKDGFTEARRRHPDRVINVGIREQLLVGAGAGLALTGLRPVLHTFASFLVERPFEQVKLDLGHQDVGAVLVSAAASFDWPAGGYTHMSPGDVALLDTLDGWTMHVPGHPDEAETLLRHAVAAGDDKVYVRLSVQSNARRRAVDGERFLTVREGRAGVVVAVGPLLDPVLEATEGLDVTVLYATTVRPFDAVALRRATETAGTDVVLVEPYLAGTSTAAANDALHDVPHRVLGLGVGRPELRRYGSVDEHMAAHGLDAGSLRQRIAEFAGAPARA”, for which the protein production entry was “failed”.

On to “MDTNNFTVKVEYVDADGAEIAPSDILTDYHYVSTPKDIPGYKLREIPHNATGNITDTGIIVRYIYLEHHHHHH”, for which the protein production entry is listed as “not failed”.

For “MDTSLPSAILNNMVTATLILDDGLAIRYANPAAELLFSQSAKRIVEQSLSQLIQHASLDLALLTQPLQSGQSITDSDVTFVVDGRPLMLEVTVSPITWQRQLMLLVEMRKID”, the protein production result is recorded as “not failed”. With “MDVDVDVDVEMDMDMDMYVALVEVEVEVFLLRTQILTESRKGRMITNMKKPNGNVTNVCDRCGGNGHWFHTCRIPKYLVELYKQSLKQDGKNTETNLVYEKGEDDTTHMELDDFLTHDGNIDS”, the protein production result is recorded as “failed”.

Regarding “MDVEDYITLFLSLWIIASALAVKSVDVFLTLTLIGLLITLEVGGLFLSKEQKENLQPLIEILLLVFAVIVVKKVYEVLSG”, the protein production entry is “failed”. In the case of “MDVLIFNSWHWWTHTSGLQPWDYMREGNQLYKDMNRLVAYYKGLNTWARWINNNIVPSRTQVFFQGVSPVHYDGREWNEPLKSCNGQTQPFMGQRYPGGLPLGWVVVNKVLSRIRKPVHLLDLTTLSEYRKDAHPSLYNGISKDLDCSHWCLPGLPDTWNLLLYSSLTS”, the protein production entry is “failed”.

With “MDVLIHLFVGLHIIGIAALLGGFLTQMKAMGRGTARFVPGMLHGALTMLVTGVALVGLNQADDHSVNTIKIGVKLALLIVILGLVYVKRDEEQVDKGLFGLVGLLTTANIFIAVLWT”, the protein production result is on record as “failed”.

As to “MDVLRKQEILPQLPKLDKYERKSSCGNTWQGSLSETESWREKLRYLTDYRLERGRFDKDTDFLSTFQPKQNEVQRNNISFEFDSDKSSRKTDFPGILTERPVLLRTNQEPDVYGARLRELSAANAEGERNVFHEDKTSSSQSKLPSFEIFSAIGQKEDIPGYQGGCLRGETVLKTAAVASPQIADRNSRVSFHDGGILQPINSPTGFSQPRNDNNSYKTSSSEENLYSIRQLPWSEYARTRNYDCVEPSLGVSISDEQRRFGENALCMSVSQPMYEEPHPLVTLRSTEGLTQEQKQLRR”, the protein production result is “failed”. As to “MDVSGQLNTETVGSSLRKIRSFSHYEKHDEVFHSDQSHIVVVHNGQLRVQTGDCTIDVVAGSGVFLSQGDYLLEYSPQGGNYHSSIIEFDNELVSQLLQKHSDLLMTLPKVDKLNSGLFSFGLNILIEQVLSGMKTLEEQSYPDAIMRLKYEEMLILLLHSQGGEVLYALLSQQTNRTSDRLRRFMEQHYLKEWKLTDYAQEFGASLTTFKELFNEHYGISPRAWISERRLLHAHKLLLTSKMSIVDVAMEAGFSSQSYFTQSYRRRFGTTPSKVRSGDEQVAIAN”, the protein production result is recorded as “failed”.

For the sequence “MDVTVSTDDGYRVNNLGLMSSRQNYMIFGGFVAIAGIIIVLVGEKFKPSANSVKCPYCAELISAEAVKCKHCGSDVTPSKTIVSADDAEASDRLADVNVKLIAGVVLAVFAAIIGAIIFHRQ”, the protein production entry is reported as “failed”. For “MDWEERENPKRLVKTFAFPNFREALDFANRVGALAERENHHPRLTVEWGRVTVEWWTHSAGGVTEKDREMARLTDALLQR” the value was “not failed”; for “MDYFGLAAKYIPFVTLGLLPIMNPLSTVPLFLELTKRMSPERKHQQARRACLYALSILAVFLFIGNGIITLFGISLAGIRVAGGLIILVLAFRMLFSGEGEEASIETEATEIKRANLDFSFSPLAMPSLAGPGSIAVVMSYGSQIPDDALVFGHFIVICGISITVLIAYIALAGSAWIAKFLGEHGIQAVTKIMGFLLTCIAVQFIASGIRDFSQTL”, “failed”; for “MDYSQYHVEQTQEITELVTRTFSKSEGVDEGTLIGALIKDLFATTDSDDMFIFVAKDNGKIVGSIFFTRLTFEIDTTAFLLCPVVIDTEYQNKGVGQTLINHGLEVLKQEGVELVFTYGEPKFYERVGFEIVSEEQFKSPIPLSYLYSWLAQSLNDEVLTYIPGRSKCVAALNNLRLW”, “failed”.
